Results as given in patent US11306156.
“And” between values parts separate entries of the source, which are not always exact repeats. Equal values may be shown once. One block for each substance: values may come before it.

How the values were obtained:
[1] = target: D3H44 Fab heavy chain L143K; assay: LCCA, L1:L2 DNA 1:3 normalised to 1:1, SPR of light chain tags; competitor m34
[2] = target: D3H44 Fab heavy chain L143E_K145T_S188L; assay: as above
[3] = target: D3H44 Fab heavy chain L143E_K145T_S188L; assay: LCCA, L1:L2 DNA 1:3 normalised to 1:1, SPR of light chain tags; competitor m40
[4] = target: D3H44 Fab heavy chain L143E_K145T_S188L; assay: LCCA, L1:L2 DNA 1:3 normalised to 1:1, SPR of light chain tags; competitor m38
[5] = target: D3H44 Fab heavy chain L143E_K145T; assay: LCCA, L1:L2 DNA 1:3 normalised to 1:1, SPR of light chain tags; competitor m35
[6] = target: D3H44 Fab heavy chain S186R, C-terminal ABD2-His6 tag; assay: LCCA: heavy chain co-expressed with two light chains, SPR detection of light chain tags; L1:L2 DNA 1:3, normalized to 1:1; competing light chain m12
[7] = target: D3H44 Fab heavy chain L143E_K145T_Q179E_S188L, C-terminal ABD2-His6 tag; assay: as above
[8] = target: D3H44 Fab heavy chain S186K, C-terminal ABD2-His6 tag; assay: LCCA: heavy chain co-expressed with two light chains, SPR detection of light chain tags; L1:L2 DNA 1:9, normalized to 1:1; competing light chain m11
[9] = target: D3H44 Fab heavy chain L143E_K145T_S188L, C-terminal ABD2-His6 tag; assay: as above
[10] = target: D3H44 Fab heavy chain S186R, C-terminal ABD2-His6 tag; assay: LCCA: heavy chain co-expressed with two light chains, SPR detection of light chain tags; L1:L2 DNA 1:3, normalized to 1:1; competing light chain m20
[11] = target: D3H44 Fab heavy chain L143E_K145T_Q179E_S188L, C-terminal ABD2-His6 tag; assay: as above
[12] = target: D3H44 Fab heavy chain S186K, C-terminal ABD2-His6 tag; assay: LCCA: heavy chain co-expressed with two light chains, SPR detection of light chain tags; L1:L2 DNA 1:3, normalized to 1:1; competing light chain m11
[13] = target: D3H44 Fab heavy chain L143E_K145T_S188L, C-terminal ABD2-His6 tag; assay: as above
[14] = target: D3H44 Fab heavy chain Q179R, C-terminal ABD2-His6 tag; assay: as above
[15] = target: D3H44 Fab heavy chain L124A_S186K; assay: LCCA, L1:L2 DNA 1:3 normalised to 1:1, SPR of light chain tags; competitor m33
[16] = target: D3H44 Fab heavy chain L143K_D146G; assay: LCCA, L1:L2 DNA 1:3 normalised to 1:1, SPR of light chain tags; competitor m34
[17] = target: D3H44 Fab heavy chain L143E_K145T; assay: as above
[18] = target: D3H44 Fab heavy chain L143R; assay: as above
[19] = target: D3H44 Fab heavy chain L143E_K145T; assay: LCCA, L1:L2 DNA 1:3 normalised to 1:1, SPR of light chain tags; competitor m32
[20] = target: D3H44 Fab heavy chain L143E_K145T_S188L; assay: LCCA, L1:L2 DNA 1:3 normalised to 1:1, SPR of light chain tags; competitor m37
[21] = target: D3H44 Fab heavy chain Q179K; assay: LCCA, L1:L2 DNA 1:3 normalised to 1:1, SPR of light chain tags; competitor m31
[22] = target: D3H44 Fab heavy chain Q179R; assay: as above
[23] = target: D3H44 Fab heavy chain S186R; assay: as above
[24] = target: D3H44 Fab heavy chain L143E_K145T; assay: as above
[25] = target: D3H44 Fab heavy chain S186R; assay: LCCA, L1:L2 DNA 1:3 normalised to 1:1, SPR of light chain tags; competitor m33
[26] = target: D3H44 Fab heavy chain L143E_K145T; assay: as above
[27] = target: D3H44 Fab heavy chain S186K, C-terminal ABD2-His6 tag; assay: LCCA: heavy chain co-expressed with two light chains, SPR detection of light chain tags; L1:L2 DNA 1:3, normalized to 1:1; competing light chain m12
[28] = target: D3H44 Fab heavy chain L143E_K145T_S188L, C-terminal ABD2-His6 tag; assay: as above
[29] = target: D3H44 Fab heavy chain Q179R, C-terminal ABD2-His6 tag; assay: as above
[30] = target: D3H44 Fab heavy chain S186K, C-terminal ABD2-His6 tag; assay: LCCA: heavy chain co-expressed with two light chains, SPR detection of light chain tags; L1:L2 DNA 1:3, normalized to 1:1; competing light chain m14
[31] = target: D3H44 Fab heavy chain Q179K, C-terminal ABD2-His6 tag; assay: as above
[32] = target: D3H44 Fab heavy chain L143E_K145T_S188L, C-terminal ABD2-His6 tag; assay: as above
[33] = target: D3H44 Fab heavy chain L143R, C-terminal ABD2-His6 tag; assay: LCCA: heavy chain co-expressed with two light chains, SPR detection of light chain tags; L1:L2 DNA 1:3, normalized to 1:1; competing light chain m17
[34] = target: D3H44 Fab heavy chain L143E_K145T_S188L, C-terminal ABD2-His6 tag; assay: as above
[35] = target: D3H44 Fab heavy chain S186K, C-terminal ABD2-His6 tag; assay: LCCA: heavy chain co-expressed with two light chains, SPR detection of light chain tags; L1:L2 DNA 1:9, normalized to 1:1; competing light chain m13
[36] = target: D3H44 Fab heavy chain L143E_K145T, C-terminal ABD2-His6 tag; assay: as above
[37] = target: D3H44 Fab heavy chain Q179K, C-terminal ABD2-His6 tag; assay: LCCA: heavy chain co-expressed with two light chains, SPR detection of light chain tags; L1:L2 DNA 1:3, normalized to 1:1; competing light chain m15
[38] = target: D3H44 Fab heavy chain L143E_K145T, C-terminal ABD2-His6 tag; assay: as above
[39] = target: D3H44 Fab heavy chain L143E_K145T, C-terminal ABD2-His6 tag; assay: LCCA: heavy chain co-expressed with two light chains, SPR detection of light chain tags; L1:L2 DNA 1:3, normalized to 1:1; competing light chain m13
[40] = target: D3H44 Fab heavy chain L143R, C-terminal ABD2-His6 tag; assay: LCCA: heavy chain co-expressed with two light chains, SPR detection of light chain tags; L1:L2 DNA 1:9, normalized to 1:1; competing light chain m17
[41] = target: D3H44 Fab heavy chain L143E_K145T_S188L, C-terminal ABD2-His6 tag; assay: as above
[42] = target: D3H44 Fab heavy chain S186K, C-terminal ABD2-His6 tag; assay: LCCA: heavy chain co-expressed with two light chains, SPR detection of light chain tags; L1:L2 DNA 1:9, normalized to 1:1; competing light chain m12
[43] = target: D3H44 Fab heavy chain L143E_K145T_S188L, C-terminal ABD2-His6 tag; assay: as above
[44] = target: D3H44 Fab heavy chain Q179K, C-terminal ABD2-His6 tag; assay: LCCA: heavy chain co-expressed with two light chains, SPR detection of light chain tags; L1:L2 DNA 1:3, normalized to 1:1; competing light chain m16
[45] = target: D3H44 Fab heavy chain L143E_K145T_S188L, C-terminal ABD2-His6 tag; assay: as above
[46] = target: D3H44 Fab heavy chain L143R; assay: LCCA, L1:L2 DNA 1:3 normalised to 1:1, SPR of light chain tags; competitor m33
[47] = target: D3H44 Fab heavy chain L143E_K145T_S188L; assay: as above

- H2L2:H2L1 normalized median ratio [1]: 90%
- H1L1:H1L2 normalized median ratio [2]: 26%
Substance: D3H44 light chain Q124E_V133D_S176L

- H1L1:H1L2 normalized median scalar value ln(r1/f1) [3]: 0.82
- H1L1:H1L2 normalized median scalar value ln(r1/f1) [4]: 1.06
- H1L1:H1L2 normalized median scalar value ln(r1/f1) [5]: 0.71
Substance: D3H44 light chain Q124R

- H2L2:H2L1 normalized median ratio [6]: 12%
- H1L1:H1L2 normalized median ratio [7]: 83%
- H1L1:H1L2 normalized median scalar value ln(r1/f1) [7]: 1.62
Substance: D3H44 light chain Q124R_T178R, N-terminal HA or FLAG tag

- H2L2:H2L1 normalized median ratio [8]: 89%
- H1L1:H1L2 normalized median ratio [9]: 16%
- H2L2:H2L1 normalized median ratio [10]: 88%
- H1L1:H1L2 normalized median ratio [11]: 17%
- H2L2:H2L1 normalized median ratio [12]: 94%
- H1L1:H1L2 normalized median ratio [13]: 26%
- H2L2:H2L1 normalized median ratio [14]: 95%
Substance: D3H44 light chain Q124E_S131T_T178Y_T180E, N-terminal HA or FLAG tag

- H1L1:H1L2 normalized median scalar value ln(r1/f1) [15]: 2.54
Substance: D3H44 light chain Q124E_V133W_T180E

- H2L2:H2L1 normalized median ratio [16]: 91%
- H1L1:H1L2 normalized median ratio [17]: 33%
Substance: D3H44 light chain Q124E_V133D

- H2L2:H2L1 normalized median ratio [18]: 86%
- H1L1:H1L2 normalized median ratio [2]: 31%
Substance: D3H44 light chain Q124E_V133E_S176L

- H1L1:H1L2 normalized median scalar value ln(r1/f1) [19]: -0.14
- H1L1:H1L2 normalized median scalar value ln(r1/f1) [20]: 0.03
Substance: D3H44 light chain Q124R_Q160K_T178R

- H2L2:H2L1 normalized median ratio [21]: 97%
- H2L2:H2L1 normalized median ratio [22]: 97%
- H2L2:H2L1 normalized median ratio [23]: 95%
- H1L1:H1L2 normalized median ratio [24]: 54%
- H2L2:H2L1 normalized median ratio [25]: 96%
- H1L1:H1L2 normalized median ratio [26]: 53%
Substance: D3H44 light chain S131E

- H2L2:H2L1 normalized median ratio [27]: 6%
- H1L1:H1L2 normalized median ratio [28]: 74%
- H1L1:H1L2 normalized median scalar value ln(r1/f1) [28]: 1.03
- H2L2:H2L1 normalized median ratio [29]: 5%
- H2L2:H2L1 normalized median ratio [30]: 3%
- H2L2:H2L1 normalized median ratio [31]: 3%
- H1L1:H1L2 normalized median ratio [32]: 57%
- H1L1:H1L2 normalized median scalar value ln(r1/f1) [32]: 0.28 and 0.23
- H2L2:H2L1 normalized median ratio [33]: 6%
- H1L1:H1L2 normalized median ratio [34]: 74%
- H1L1:H1L2 normalized median scalar value ln(r1/f1) [34]: 1.04
- H2L2:H2L1 normalized median ratio [35]: 10%
- H1L1:H1L2 normalized median ratio [36]: 81%
- H1L1:H1L2 normalized median scalar value ln(r1/f1) [36]: 1.44
- H2L2:H2L1 normalized median ratio [37]: 2%
- H1L1:H1L2 normalized median ratio [38]: 47%
- H1L1:H1L2 normalized median scalar value ln(r1/f1) [38]: -0.14
- H1L1:H1L2 normalized median ratio [39]: 82%
- H1L1:H1L2 normalized median scalar value ln(r1/f1) [39]: 1.77
- H2L2:H2L1 normalized median ratio [40]: 21%
- H1L1:H1L2 normalized median ratio [41]: 86%
- H1L1:H1L2 normalized median scalar value ln(r1/f1) [41]: 1.79
- H2L2:H2L1 normalized median ratio [42]: 11%
- H1L1:H1L2 normalized median ratio [43]: 84%
- H1L1:H1L2 normalized median scalar value ln(r1/f1) [43]: 1.65
- H2L2:H2L1 normalized median ratio [44]: 3%
- H1L1:H1L2 normalized median ratio [45]: 59%
- H1L1:H1L2 normalized median scalar value ln(r1/f1) [45]: 0.37
Substance: D3H44 light chain Q124R_Q160K_T178R, N-terminal HA or FLAG tag

- H2L2:H2L1 normalized median ratio [46]: 96%
- H1L1:H1L2 normalized median ratio [47]: 49%
Substance: D3H44 light chain Q124E_V133E
